PMC4868709 (2015)

target: purified Annexin A2 (UniProt P07355 1-339); test: SPR
Sequence (P07355 whole entry): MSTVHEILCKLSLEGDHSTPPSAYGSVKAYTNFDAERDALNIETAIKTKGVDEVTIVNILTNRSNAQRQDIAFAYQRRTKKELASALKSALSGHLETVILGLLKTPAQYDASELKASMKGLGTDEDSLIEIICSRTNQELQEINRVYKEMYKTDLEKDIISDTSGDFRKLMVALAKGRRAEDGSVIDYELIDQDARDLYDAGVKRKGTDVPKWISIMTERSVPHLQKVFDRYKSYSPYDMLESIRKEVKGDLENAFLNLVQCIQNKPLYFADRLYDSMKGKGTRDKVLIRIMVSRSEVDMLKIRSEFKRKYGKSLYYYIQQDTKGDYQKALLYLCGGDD

koff | Binder
0.00307 s⁻¹ | purified I domain of CD147 (domain or fragment) PRVKAVKSSEHINEGETAMLVCKSESVPPVTDWAWYKITDSEDKALMNGSESRFFVSSSQGRSELHIENLNMEADPGQYRCNGTSSKGSDQAIIT
1.14 s⁻¹ | purified C2 domain of CD147 (domain or fragment) AAGTVFTTVEDLGSKILLTCSLNDSATEVTGHRWLKGGVVLKEDALPGQKTEFKVDSDDQWGEYSCVFLPEPMGTANIQLHG
1.14 s⁻¹ | purified His-tagged Ig-like domains of CD147 (CD147ECP-his) (domain or fragment) AAGTVFTTVEDLGSKILLTCSLNDSATEVTGHRWLKGGVVLKEDALPGQKTEFKVDSDDQWGEYSCVFLPEPMGTANIQLHGPPRVKAVKSSEHINEGETAMLVCKSESVPPVTDWAWYKITDSEDKALMNGSESRFFVSSSQGRSELHIENLNMEADPGQYRCNGTSSKGSDQAIITLRVRSHLAAL
